Reference: patent publication US20140288000A1 (University of California, published 2014)
Positions count from the first letter of the chain named.

B1: plasmin-inhibiting polypeptide comprising the amino acid sequence set forth in SEQ ID NO:5 (designed binder)
chain: NAEICLLPLDYGPCRARLLRYYYDRYTQSCRQFLYGGCEGNANNFYTWEACDDACWRIEK
B2: plasmin-inhibiting polypeptide comprising the amino acid sequence set forth in SEQ ID NO:3 (designed binder)
chain: B1 chain with Y11T
B3: plasmin-inhibiting polypeptide comprising the amino acid sequence set forth in SEQ ID NO:4 (designed binder)
chain: NAEICLLPLDTGPCRARLLRYYYDRYTQSCRQFLYGGCEGNANNFYTWEACDDACWRIEKVPK
B4: plasmin-inhibiting polypeptide comprising the amino acid sequence set forth in SEQ ID NO:6 (designed binder)
chain: B3 chain with T11Y

Target: human plasmin (human, UniProt P00747 97-810, limits assumed)
Test: cell-based or functional assay

Sequence of human plasmin (P00747 97-810 limits assumed): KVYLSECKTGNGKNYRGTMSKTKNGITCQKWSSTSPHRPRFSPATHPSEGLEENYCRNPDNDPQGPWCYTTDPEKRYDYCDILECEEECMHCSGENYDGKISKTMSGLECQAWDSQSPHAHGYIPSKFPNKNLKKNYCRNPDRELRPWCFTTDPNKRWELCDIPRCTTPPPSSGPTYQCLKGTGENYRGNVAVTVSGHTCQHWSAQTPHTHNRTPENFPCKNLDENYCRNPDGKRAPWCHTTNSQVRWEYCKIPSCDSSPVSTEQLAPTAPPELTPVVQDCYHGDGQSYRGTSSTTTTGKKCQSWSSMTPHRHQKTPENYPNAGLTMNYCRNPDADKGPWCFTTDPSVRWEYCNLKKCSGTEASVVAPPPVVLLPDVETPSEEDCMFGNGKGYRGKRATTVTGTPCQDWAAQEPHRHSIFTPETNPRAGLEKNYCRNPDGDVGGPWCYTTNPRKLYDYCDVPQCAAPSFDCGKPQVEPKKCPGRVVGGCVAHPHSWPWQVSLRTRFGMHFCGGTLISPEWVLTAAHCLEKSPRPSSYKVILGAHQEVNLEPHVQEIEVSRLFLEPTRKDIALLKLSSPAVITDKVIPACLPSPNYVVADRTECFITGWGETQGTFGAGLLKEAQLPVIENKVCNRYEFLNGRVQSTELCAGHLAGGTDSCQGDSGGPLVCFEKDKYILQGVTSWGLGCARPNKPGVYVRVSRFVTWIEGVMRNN

Row | IC50 (nM), inhibition of plasmin activity on chromogenic substrate S2251 [nM] | Binder
1 | 3.4 | B1
2 | 1.8 | B2
3 | 0.8 | B3
4 | 1.8 | B4
